# Columns and labels:
# MSCs (RS cells) = experiment: Binding of biotinylated Dkk-1 peptides to MSCs (streptavidin-biotin fluorescence microscopy); set-up: species or system human; conditions: for fluorescence of MSCs labeled with peptide: FIGS. 30A-30G correspond to peptides A-G; for binding to early progenitor cells (RS cells): biotin-labeled peptide, streptavidin Alexafluor 594
# Text: FIG. 30, comprising FIGS. 30A-30H, is an image of a set of photomicrographs depicting solid phase binding assays to MSCs using biotinylated peptides. The labeled peptides in FIGS. 30A-30G correspond to peptides A-G in FIG. 29. FIG. 30H is a control.
# The peptides were then labeled with biotin for use with a commercially available streptavidin-biotin detection system. The streptavidin was linked to a fluorescent tag (Alexafluor 594, Molecular Probes, Eugene, Oreg.) so as to be easily detected by fluorescence microscopy. MSCs were incubated with one of the peptides and the streptavidin-biotin detection system as indicated by the manufacturer's instructions. Then the MSCs were observed under a fluorescence microscope. All of these methods are well-known in the art and are easily found throughout the literature.
# hMSCs [1] = experiment: Effect of recombinant Dkk-1 on hMSC proliferation (fluorescence assay for nucleic acids); type: cell-based, human
# Protocol: For assay of proliferation, cells were also quantified by fluorescent labeling of nucleic acids (CyQuant dye; Molecular Probes Incorporated; Eugene, Oreg.). hMSCs were plated at 100 cells per cm^2 into 10 cm^2 wells and allowed to grow for 4 days. The cells were washed with PBS and medium was added containing the appropriate concentration of Dkk-1 and FCS. The cells were recovered by trypsinization as described above. Fluorescence analysis was carried out using a microplate fluorescence reader (FLx800; Bio-Tek Instruments Incorporated; Winooski, Vt.) set to 480 nanometers excitation and 520 nanometers emission.
# To test the hypothesis that Dkk-1 increased proliferation of hMSCs, its effects on rate of growth were assayed. The hMSCs were plated at a density of 100 cells per cm^2 in 6 well plates (10 per cm^2 per well). After 4 days, when the cells were in early log phase of growth, the conditioned medium was removed and replaced with fresh medium containing either vehicle, 0.1 micrograms per milliliter Dkk-1 or 0.01 micrograms per milliliter Dkk-1.
# hMSCs [2] = experiment: Colony-forming potential of hMSCs with recombinant Dkk-1 (crystal violet); type: cell-based, human
# Protocol: MSCs were plated at about 0.6 cells per cm^2 and incubated in complete medium for 17 days. For direct visualization of colonies, a 5% (w/v) solution of crystal violet in methanol (Sigma Aldrich, St. Louis, Mo.) was added to tissue culture dishes previously washed twice with PBS. After 20 minutes, the plates were washed with distilled water and air-dried. Stained colonies with diameters 2 millimeters or greater were counted.
# To test the effect of recombinant Dkk-1 on the colony-forming potential of hMSCs, 100 hMSCs were plated onto a 176 cm2 tissue culture dish and allowed to form colonies in the absence or presence of Dkk-1 in medium supplemented with 10% (v/v) fetal calf serum instead of the optimal concentration of 20%.
# beta-catenin [3] = experiment: beta-catenin levels in hMSCs by western blotting; type: cell-based, human; conditions: stationary phase hMSCs, 0.1 micrograms per milliliter
# Protocol: For immunoblotting, filters were blocked in PBS containing 0.1% (v/v) Tween 20 (Sigma, St. Louis, Mo.) for 1 hour. For detection of beta-catenin, blots were probed with an anti-beta-catenin monoclonal antibody at a dilution of 1 to 1000 (clone 5H10 Chemicon International; Temecula, Calif.) followed by an anti-mouse peroxidase-conjugated rabbit serum (Sigma Aldrich, St. Louis, Mo.). For detection of Dkk-1, blots were probed in 1 microgram per milliliter of anti Dkk-1 polyclonal antibody (see below) followed by an anti-rabbit peroxidase-conjugated monoclonal antibody (clone RG 96, Sigma Aldrich, St. Louis, Mo.). Positive bands were detected by chemiluminescence in accordance with a previously described procedure (Spees et al. Cell Stress Chaperones, 7:97-106 (2002)).
# In further experiments, the effect of recombinant Dkk-1 on beta-catenin levels in hMSCs were investigated.
# beta-catenin [4] = experiment: Cellular distribution of beta-catenin in hMSCs by immunostaining; type: cell-based, human; conditions: stationary phase hMSCs, 0.1 micrograms per milliliter
# Protocol: hMSCs in tissue culture dishes were fixed with 4% (v/v) Paraformaldehyde (USB Corporation, Cleveland, Ohio) for 10 minutes at 4° C. and washed with PBS (Fisher Lifesciences, Pittsburgh, Pa.). Sections (30 millimeter×60 millimeter) of the dishes containing the adherent cells were excised using a hot scalpel under constant hydration with PBS. The samples were blocked in PBS containing 0.4% (v/v) Triton X-100 (Sigma Aldrich, St. Louis, Mo.) and 5% (v/v) goat serum (Sigma Aldrich). Anti-beta-catenin (described above) was added in a 1:400 dilution to the slides in block solution. An appropriate concentration of mouse IgG1 (Cymbus Biotechnology Chandlers Ford, Hants, UK) was used as an isotype control. The samples were incubated for 16 hours at 4° C. followed by washing in PBS. The samples were then incubated for 1 hour in a 1:800 dilution of Alexa-Fluor 594-congugated secondary antibody (Molecular Probes, Eugene, Oreg.). Isotype controls were acquired from Chemicon and Becton Dickinson Slides were washed and mounted with medium containing DAPI (Vector Laboratories Incorporated; Burlingame, Calif.). Immunofluorescence microscopy and digital imaging was carried out using an upright fluorescent microscope (Eclipse 800, Nikon, Japan). […]
# [5] = 100 hMSCs per 176 cm2 dish, 10% FCS, 2.5 weeks
Molecule,fluorescence of MSCs labeled with peptide (MSCs (RS cells)),binding to early progenitor cells (RS cells) (MSCs (RS cells)),duration of effect on proliferation (hMSCs [1]; 0.1 micrograms per milliliter),rate of proliferation at high concentration (hMSCs [1]; 0.5 micrograms per milliliter),effect on proliferation as cells approached stationary phase (hMSCs [1]; cells approaching stationary phase of growth),"effect on lag phase and proliferation (hMSCs [1]; early log phase hMSCs, fresh medium with 0.1 or 0.01 micrograms per milliliter Dkk-1)",duration of significant effect on proliferation (hMSCs [1]; tenfold less Dkk-1 (0.01 micrograms per milliliter)),colony size and number at high concentration (hMSCs [2]; 0.5 micrograms per milliliter),colony number (hMSCs [2]; [5]),colony size (hMSCs [2]; [5]),beta-catenin levels (beta-catenin [3]),cellular distribution of beta-catenin (beta-catenin [4])
LSSKMYHTKGQEGSVCLRSS (Peptide synthesized from Dkk-1 LRP-6 binding domain) [Peptide B],highly fluorescent,tightly bound,–,–,–,–,–,–,–,–,–,–
sTKHRRKGSHGLEIFQRCYs (STKHRRKGSHGLEIFQRCYS; Peptide synthesized from Dkk-1 LRP-6 binding domain) [Peptide E],highly fluorescent,tightly bound,–,–,–,–,–,–,–,–,–,–
"recombinant Dkk-1: Histidine-tagged recombinant human Dkk-1 expressed in E. coli, refolded from inclusion bodies; inhibitor of Wnt signaling (protein) TLNSVLNSNAIKNLPPPLGGAAGHPGSAVSAAPGILYPGGNKYQTIDNYQPYPCAEDEECGTDEYCASPTRGGDAGVQICLACRKRRKRCMRHAMCCPGNYCKNGICVSSDQNHFRGEIEETITESFGNDHSTLDGYSRRTTLSSKMYHTKGQEGSVCLRSSDCASGLCCARHFWSKICKPVLKEGQVCTKHRRKGSHGLEIFQRCYCGEGLSCRIQKDHHQASNSSRLHTCQRH",–,–,30 h,failed to increase the rate of proliferation,no significant effect,reduced the lag phase and initially increased proliferation,about 15 hours,reduced both the colony size and number,no significant effect,increased colony size,reduced the levels of beta-catenin,clearance of the cytoplasmic pool of beta-catenin
